How the values were obtained:
LRP1 (Homo sapiens) = LRP1 (Homo sapiens) (UniProt Q07954); conditions: cited from earlier work
[1] = biological target: low density lipoprotein receptor-related protein 1 (LRP1), purified from placenta; test: SPR; Biacore T100; LRP1 immobilised on CM5 chip at 3.4 fmol/mm2; CCN-2 or its fragments flowed over; 10 mM Hepes pH 7.4, 150 mM NaCl, 5 mM CaCl2, 0.005 % surfactant P20; 25 °C; affinity constants by steady-state analysis

Chain of UniProt Q07954 (Q07954 20-4544): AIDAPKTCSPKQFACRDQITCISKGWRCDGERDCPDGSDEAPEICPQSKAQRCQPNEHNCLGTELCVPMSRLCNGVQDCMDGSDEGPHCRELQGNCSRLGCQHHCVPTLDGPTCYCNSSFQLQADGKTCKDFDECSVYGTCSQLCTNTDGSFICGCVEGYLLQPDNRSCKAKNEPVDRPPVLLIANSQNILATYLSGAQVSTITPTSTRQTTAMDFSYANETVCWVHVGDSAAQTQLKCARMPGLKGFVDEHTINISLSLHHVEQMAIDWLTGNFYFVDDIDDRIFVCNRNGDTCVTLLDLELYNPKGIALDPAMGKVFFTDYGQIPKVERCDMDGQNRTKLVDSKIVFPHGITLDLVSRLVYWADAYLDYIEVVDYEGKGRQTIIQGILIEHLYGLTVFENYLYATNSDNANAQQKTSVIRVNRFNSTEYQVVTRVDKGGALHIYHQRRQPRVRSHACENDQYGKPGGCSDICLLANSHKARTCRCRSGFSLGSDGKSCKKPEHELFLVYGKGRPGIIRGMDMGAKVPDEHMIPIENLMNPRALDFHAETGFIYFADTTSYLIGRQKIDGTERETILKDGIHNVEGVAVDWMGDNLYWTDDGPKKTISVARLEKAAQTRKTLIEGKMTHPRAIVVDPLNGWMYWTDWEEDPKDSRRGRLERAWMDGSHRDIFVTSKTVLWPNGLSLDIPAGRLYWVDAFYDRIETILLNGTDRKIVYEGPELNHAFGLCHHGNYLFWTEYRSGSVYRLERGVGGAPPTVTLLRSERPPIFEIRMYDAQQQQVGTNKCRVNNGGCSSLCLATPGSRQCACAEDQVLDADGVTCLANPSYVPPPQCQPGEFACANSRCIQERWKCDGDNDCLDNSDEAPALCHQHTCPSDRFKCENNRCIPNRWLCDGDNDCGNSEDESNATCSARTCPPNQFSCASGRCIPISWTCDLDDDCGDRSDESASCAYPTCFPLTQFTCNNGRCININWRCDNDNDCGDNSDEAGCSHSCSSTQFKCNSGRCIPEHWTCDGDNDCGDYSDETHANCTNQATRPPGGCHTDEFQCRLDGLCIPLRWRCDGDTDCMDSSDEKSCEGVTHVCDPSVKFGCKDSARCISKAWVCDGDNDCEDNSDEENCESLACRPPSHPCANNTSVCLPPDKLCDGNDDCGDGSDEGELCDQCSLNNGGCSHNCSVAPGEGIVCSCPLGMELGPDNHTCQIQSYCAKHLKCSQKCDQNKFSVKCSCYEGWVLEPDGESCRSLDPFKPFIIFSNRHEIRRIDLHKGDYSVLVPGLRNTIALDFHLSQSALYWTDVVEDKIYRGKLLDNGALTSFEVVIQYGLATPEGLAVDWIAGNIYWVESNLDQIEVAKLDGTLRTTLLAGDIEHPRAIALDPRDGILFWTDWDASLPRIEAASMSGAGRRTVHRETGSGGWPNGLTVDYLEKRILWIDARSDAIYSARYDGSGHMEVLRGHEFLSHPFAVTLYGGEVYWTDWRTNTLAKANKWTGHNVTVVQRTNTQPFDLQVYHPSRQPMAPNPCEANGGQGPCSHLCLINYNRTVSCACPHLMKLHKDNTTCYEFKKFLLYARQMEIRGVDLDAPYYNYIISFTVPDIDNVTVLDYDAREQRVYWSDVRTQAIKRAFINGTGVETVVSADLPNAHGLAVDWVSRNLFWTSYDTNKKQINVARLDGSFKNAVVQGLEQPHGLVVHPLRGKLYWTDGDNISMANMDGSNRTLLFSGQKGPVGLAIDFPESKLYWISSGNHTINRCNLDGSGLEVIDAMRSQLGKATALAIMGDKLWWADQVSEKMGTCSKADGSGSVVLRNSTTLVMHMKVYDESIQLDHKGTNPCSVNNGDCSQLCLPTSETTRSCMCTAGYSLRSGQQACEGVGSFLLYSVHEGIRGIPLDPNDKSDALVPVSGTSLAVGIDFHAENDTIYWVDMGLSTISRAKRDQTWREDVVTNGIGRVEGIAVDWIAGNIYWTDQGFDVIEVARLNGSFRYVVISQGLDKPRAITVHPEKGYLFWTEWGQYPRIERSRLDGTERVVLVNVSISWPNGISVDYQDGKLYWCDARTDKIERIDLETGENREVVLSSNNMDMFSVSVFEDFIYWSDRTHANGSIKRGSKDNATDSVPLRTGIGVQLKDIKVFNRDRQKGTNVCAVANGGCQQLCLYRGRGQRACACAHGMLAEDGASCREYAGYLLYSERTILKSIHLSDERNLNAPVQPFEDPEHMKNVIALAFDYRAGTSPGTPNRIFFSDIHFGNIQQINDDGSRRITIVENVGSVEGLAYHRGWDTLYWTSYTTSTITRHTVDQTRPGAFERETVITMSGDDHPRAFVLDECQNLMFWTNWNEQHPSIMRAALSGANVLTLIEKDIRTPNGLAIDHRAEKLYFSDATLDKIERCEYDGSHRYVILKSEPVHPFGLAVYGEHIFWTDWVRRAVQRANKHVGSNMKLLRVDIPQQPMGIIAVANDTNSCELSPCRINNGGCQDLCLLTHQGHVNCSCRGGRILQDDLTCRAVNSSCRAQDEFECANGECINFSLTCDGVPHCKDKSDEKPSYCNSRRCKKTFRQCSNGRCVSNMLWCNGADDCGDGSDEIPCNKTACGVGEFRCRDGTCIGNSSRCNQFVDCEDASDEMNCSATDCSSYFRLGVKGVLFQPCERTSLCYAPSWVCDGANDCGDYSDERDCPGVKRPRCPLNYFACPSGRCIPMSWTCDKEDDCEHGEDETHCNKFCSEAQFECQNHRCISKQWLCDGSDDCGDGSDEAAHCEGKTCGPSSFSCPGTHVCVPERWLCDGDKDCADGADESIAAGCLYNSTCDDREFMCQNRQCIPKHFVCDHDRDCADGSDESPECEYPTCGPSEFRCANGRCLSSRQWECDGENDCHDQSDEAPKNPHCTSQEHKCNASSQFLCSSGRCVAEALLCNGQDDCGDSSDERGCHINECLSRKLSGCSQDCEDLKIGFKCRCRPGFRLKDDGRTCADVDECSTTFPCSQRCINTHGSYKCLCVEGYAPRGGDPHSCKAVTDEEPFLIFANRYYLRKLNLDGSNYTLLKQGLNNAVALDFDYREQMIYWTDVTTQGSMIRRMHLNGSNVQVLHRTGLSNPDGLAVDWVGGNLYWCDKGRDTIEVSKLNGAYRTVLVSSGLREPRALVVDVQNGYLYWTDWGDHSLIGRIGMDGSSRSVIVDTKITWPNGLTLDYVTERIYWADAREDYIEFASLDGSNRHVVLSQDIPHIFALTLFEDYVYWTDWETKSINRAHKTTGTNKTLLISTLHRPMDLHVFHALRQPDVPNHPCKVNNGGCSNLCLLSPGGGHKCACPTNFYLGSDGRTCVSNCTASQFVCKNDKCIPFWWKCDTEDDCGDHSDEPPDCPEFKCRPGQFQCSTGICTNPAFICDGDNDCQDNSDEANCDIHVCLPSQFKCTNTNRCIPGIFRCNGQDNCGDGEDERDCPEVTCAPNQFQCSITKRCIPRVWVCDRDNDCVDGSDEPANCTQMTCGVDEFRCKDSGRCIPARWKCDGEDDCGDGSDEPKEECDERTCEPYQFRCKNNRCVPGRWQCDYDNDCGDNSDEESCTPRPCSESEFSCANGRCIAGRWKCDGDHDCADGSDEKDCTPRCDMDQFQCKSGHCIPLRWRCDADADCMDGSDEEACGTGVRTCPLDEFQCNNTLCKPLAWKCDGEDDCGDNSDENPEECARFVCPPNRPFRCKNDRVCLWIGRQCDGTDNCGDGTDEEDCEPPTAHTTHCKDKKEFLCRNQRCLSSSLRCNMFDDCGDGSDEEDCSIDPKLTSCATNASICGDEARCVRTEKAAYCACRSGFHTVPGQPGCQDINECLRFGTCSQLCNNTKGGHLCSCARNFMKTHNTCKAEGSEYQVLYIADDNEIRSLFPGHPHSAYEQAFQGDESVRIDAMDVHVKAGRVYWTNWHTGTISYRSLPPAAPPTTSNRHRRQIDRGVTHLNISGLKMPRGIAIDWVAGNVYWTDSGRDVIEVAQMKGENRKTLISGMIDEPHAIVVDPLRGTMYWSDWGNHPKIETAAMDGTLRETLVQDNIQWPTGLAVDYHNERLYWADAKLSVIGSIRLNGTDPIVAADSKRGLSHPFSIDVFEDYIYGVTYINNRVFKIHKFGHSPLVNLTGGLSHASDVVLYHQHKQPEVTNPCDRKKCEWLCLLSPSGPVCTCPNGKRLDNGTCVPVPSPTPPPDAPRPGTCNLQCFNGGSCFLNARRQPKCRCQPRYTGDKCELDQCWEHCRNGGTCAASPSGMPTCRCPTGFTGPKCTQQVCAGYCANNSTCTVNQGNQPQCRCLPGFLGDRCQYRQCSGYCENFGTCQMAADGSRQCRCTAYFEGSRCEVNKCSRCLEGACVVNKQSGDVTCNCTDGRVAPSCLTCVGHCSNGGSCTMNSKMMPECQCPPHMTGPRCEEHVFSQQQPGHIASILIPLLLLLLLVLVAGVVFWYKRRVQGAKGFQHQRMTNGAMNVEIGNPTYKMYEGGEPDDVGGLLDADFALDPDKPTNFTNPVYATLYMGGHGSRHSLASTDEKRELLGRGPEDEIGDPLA

| Kd [1] [nM] | Substance | Kd (LRP1 (Homo sapiens)) [nM] |
| --- | --- | --- |
| – | RAP (from UniProt P30533) | 5.4 |
| 116 | recombinant human full length CCN-2 (connective tissue growth factor) (from UniProt P29279 27-349) (natural protein) | – |
| 112 | recombinant human CCN-2 C-terminal fragment (domain 3 and 4) (domain or fragment) | – |
